Laboratory results from article PMC11203824.

B1: EGFP-Arc (EGFP tag at the N-terminus), expressed in U2OS cells, Q9WV31 1-396 (natural protein)
chain: MELDHMTTGGLHAYPAPRGGPAAKPNVILQIGKCRAEMLEHVRRTHRHLLTEVSKQVERELKGLHRSVGKLENNLDGYVPTGDSQRWKKSIKACLCRCQETIANLERWVKREMHVWREVFYRLERWADRLESMGGKYPVGSEPARHTVSVGVGGPEPYCQEADGYDYTVSPYAITPPPAAGELPEQESVEAQQYQSWGPGEDGQPSPGVDTQIFEDPREFLSHLEEYLRQVGGSEEYWLSQIQNHMNGPAKKWWEFKQGSVKNWVEFKKEFLQYSEGTLSREAIQRELELPQKQGEPLDQFLWRKRDLYQTLYVDAEEEEIIQYVVGTLQPKLKRFLRHPLPKTLEQLIQRGMEVQDGLEQAAEPSGTPLPTEDETEALTPALTSESVASDRTQPE
B2: Arc-EGFP (EGFP tag at the C-terminus), expressed in U2OS cells, Q9WV31 1-396 (natural protein)
chain: B1 chain

Columns and labels:
[1] = biological target: T1, EGFP-Arc (EGFP tag at the N-terminus), expressed in U2OS cells (mouse), Q9WV31; assay: fluorescence fluctuation spectroscopy (brightness analysis); single-point FFS in the cytoplasm of living U2OS cells, ~200 nM to ~5 µM EGFP-tagged Arc; normalized brightness b against EGFP alone gives the average stoichiometry; details: remark: other sources report otherwise
T1 chain: B1 chain

[2] = biological target: T2, Arc-EGFP (EGFP tag at the C-terminus), expressed in U2OS cells (mouse), Q9WV31; assay: as above; details: remark: other sources report otherwise
T2 chain: B1 chain

Row | Binder | stoichiometry N (Arc molecules per particle) [1] | stoichiometry N (Arc molecules per particle) [2]
1 | B1 | 1 to 3 | 
2 | B2 |  | 1 to 3
